Consider 4 variants from publication PMC3702553 (2013).

The chains are these.
B1: full length wild-type GST-SNX9 (sorting nexin 9) [not stated] / clathrin heavy chain (CHC) [human (endogenous in HeLa)] (parent complex)
chain 1: MATKARVMYDFAAEPGNNELTVNEGEIITITNPDVGGGWLEGRNIKGERGLVPTDYVEILPSDGKDQFSCGNSVADQAFLDSLSASTAQASSSAASNNHQVGSGNDPWSAWSASKSGNWESSEGWGAQPEGAGAQRNTNTPNNWDTAFGHPQAYQGPATGDDDDWDEDWDGPKSSSYFKDSESADAGGAQRGNSRASSSSMKIPLNKFPGFAKPGTEQYLLAKQLAKPKEKIPIIVGDYGPMWVYPTSTFDCVVADPRKGSKMYGLKSYIEYQLTPTNTNRSVNHRYKHFDWLYERLLVKFGSAIPIPSLPDKQVTGRFEEEFIKMRMERLQAWMTRMCRHPVISESEVFQQFLNFRDEKEWKTGKRKAERDELAGVMIFSTMEPEAPDLDLVEIEQKCEAVGKFTKAMDDGVKELLTVGQEHWKRCTGPLPKEYQKIGKALQSLATVFSSSGYQGETDLNDAITEAGKTYEEIASLVAEQPKKDLHFLMECNHEYKGFLGCFPDIIGTHKGAIEKVKESDKLVATSKITLQDKQNMVKRVSIMSYALQAEMNHFHSNRIYDYNSVIRLYLEQQVQFYETIAEKLRQALSRFPVM
chain 2: MAQILPIRFQEHLQLQNLGINPANIGFSTLTMESDKFICIREKVGEQAQVVIIDMNDPSNPIRRPISADSAIMNPASKVIALKAGKTLQIFNIEMKSKMKAHTMTDDVTFWKWISLNTVALVTDNAVYHWSMEGESQPVKMFDRHSSLAGCQIINYRTDAKQKWLLLTGISAQQNRVVGAMQLYSVDRKVSQPIEGHAASFAQFKMEGNAEESTLFCFAVRGQAGGKLHIIEVGTPPTGNQPFPKKAVDVFFPPEAQNDFPVAMQISEKHDVVFLITKYGYIHLYDLETGTCIYMNRISGETIFVTAPHEATAGIIGVNRKGQVLSVCVEEENIIPYITNVLQNPDLALRMAVRNNLAGAEELFARKFNALFAQGNYSEAAKVAANAPKGILRTPDTIRRFQSVPAQPGQTSPLLQYFGILLDQGQLNKYESLELCRPVLQQGRKQLLEKWLKEDKLECSEELGDLVKSVDPTLALSVYLRANVPNKVIQCFAETGQVQKIVLYAKKVGYTPDWIFLLRNVMRISPDQGQQFAQMLVQDEEPLADITQIVDVFMEYNLIQQCTAFLLDALKNNRPSEGPLQTRLLEMNLMHAPQVADAILGNQMFTHYDRAHIAQLCEKAGLLQRALEHFTDLYDIKRAVVHTHLLNPEWLVNYFGSLSVEDSLECLRAMLSANIRQNLQICVQVASKYHEQLSTQSLIELFESFKSFEGLFYFLGSIVNFSQDPDVHFKYIQAACKTGQIKEVERICRESNCYDPERVKNFLKEAKLTDQLPLIIVCDRFDFVHDLVLYLYRNNLQKYIEIYVQKVNPSRLPVVIGGLLDVDCSEDVIKNLILVVRGQFSTDELVAEVEKRNRLKLLLPWLEARIHEGCEEPATHNALAKIYIDSNNNPERFLRENPYYDSRVVGKYCEKRDPHLACVAYERGQCDLELINVCNENSLFKSLSRYLVRRKDPELWGSVLLESNPYRRPLIDQVVQTALSETQDPEEVSVTVKAFMTADLPNELIELLEKIVLDNSVFSEHRNLQNLLILTAIKADRTRVMEYINRLDNYDAPDIANIAISNELFEEAFAIFRKFDVNTSAVQVLIEHIGNLDRAYEFAERCNEPAVWSQLAKAQLQKGMVKEAIDSYIKADDPSSYMEVVQAANTSGNWEELVKYLQMARKKARESYVETELIFALAKTNRLAELEEFINGPNNAHIQQVGDRCYDEKMYDAAKLLYNNVSNFGRLASTLVHLGEYQAAVDGARKANSTRTWKEVCFACVDGKEFRLAQMCGLHIVVHADELEELINYYQDRGYFEELITMLEAALGLERAHMGMFTELAILYSKFKPQKMREHLELFWSRVNIPKVLRAAEQAHLWAELVFLYDKYEEYDNAIITMMNHPTDAWKEGQFKDIITKVANVELYYRAIQFYLEFKPLLLNDLLMVLSPRLDHTRAVNYFSKVKQLPLVKPYLRSVQNHNNKSVNESLNNLFITEEDYQALRTSIDAYDNFDNISLAQRLEKHELIEFRRIAAYLFKGNNRWKQSVELCKKDSLYKDAMQYASESKDTELAEELLQWFLQEEKRECFGACLFTCYDLLRPDVVLETAWRHNIMDFAMPYFIQVMKEYLTKVDKLDASESLRKEEEQATETQPIVYGQPQLMLTAGPSVAVPPQAPFGYGYTAPPYGQPQPGFGYSM

In this assay the parent is B1. Nature of the assay: GST pull-down, densitometry of immunoblots; lysates from asynchronously growing HeLa cells; 3-4 independent experiments; parent: 1; read off a plot. A general note: In western blotting, separated proteins are transferred to a membrane and probed.
As to chain 1 W108S, the ratio to parent was ~0.44. Regarding chain 1 W108S, chain 1 W111S, the ratio to parent is ~0.06.

Consider chain 1 W165S, chain 1 W169S, for which the ratio to parent was ~0.29.

With chain 1 W165S, the ratio to parent was ~0.05.
